experiment: yeast display, Sf9 membrane polyspecificity reagent, FACS + sequencing; frameworks hold sequencing errors
How it was run: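 Synthetic nanobody libraries on Saccharomyces cerevisiae BJ5465 were galactose-induced for 36–48 hours, stained 1 hour at 4 °C with 10% biotinylated, detergent-solubilized Sf9 membrane reagent and enriched on streptavidin microbeads. FACS then separated cells into low and high (top ~1%) gates by anti-HA (expression) and streptavidin (reagent binding) fluorescence. Genes were colony-PCR amplified, MiSeq 2 × 250 sequenced and CDR-length filtered. A clone's polyreactivity label is that of its gate of origin.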

Sequence | polyreactivity (PSR sort gate)
QVQLVESGGGLVQAGGSLRLSCAASGSIFTRYAMAGYRQAPGKERELVAAISWIGTRTYYADSVKGRFTISRDNAKNTVYLPMNSLKPEETAVYYCNAVSKVERYSYPHGRPFEYWGQGTQVTVSS | high polyreactivity
QVQLVESGGGLVQAGGSLRLSCAASGSIFGAYAMGWYRQAPGKERELVAAISGSGTSTYYADSVKGRFTISRDNAKNTVYLQMNSLKPEDTAVYYCAADGTYFYLYLGDRFDYWGQGTQVTVSS | low polyreactivity
QVQLVESGGGLVQAGGSLRLSCAASGSIFISYAMGWYRQAPGTERELVAAITWSGDSTYYADSVKGRFTISRDNAKNTVYLQMNSLKPEDTAVYYCAADWYFRNQRGYYWGQGTQVTVSS | low polyreactivity
QVQLVESGGGLVQAGGSLRLSCAASGRIFNVNAMGWYRQAPGKERELVAGITRSGGSTYYADSVKWRFTISRDNAKNTVYLQMNSLNPEDTAVYYCATQATPWYRYYYWGQGTQVTVSS | high polyreactivity
QVQLVESGGGLLQAGGSLRLRSPASGSIFEEYAMGWYRQAPGKERELVAAITRRGGNTYYADSVKGRFTISRDNAKNTVYLQMTSLKPEDTAVYYCAAPLGNYSWQYEYWGPGTQVTVSS | low polyreactivity
QDQLVESGGGIVQAGGSLRLSCAASGIIFGFYAMGWYIKAPGKERELVASISYSGGRTYYADSVKGRFTISRDNAKNTFYLQMISLKPEDTAVYYCAARLYWIPPSPSRYDYWGQGTQVTVSS | high polyreactivity
QVQLVESGGGLVQAGGSLRLSCAASRITFRFYAMGWSRQAPGKERELVAVISRGGGTTYYADSVKGRFTISRDNAKNTVYLQMNSLKPEDTAVYYCNAVIAWYRSDEYDYWGQGTQVTVSS | high polyreactivity
QVQLVESGGGLVQAGGSLRLSCAASGRIFASNAMGWYRQAPGKERELVAAITTTGGSTYYADSVKGRFTISRDNAKNTVYLQMNSLKPEDTAVYYCAARAIPRVRRYGSMNYWGQGTQVTVSS | high polyreactivity
QVQIVESGGGLVQAGGSLRLSCAASGRTFAYYAMGWYRQAPGKERELVATISGSGGTTRYADSVKGRFTISRDNAKNTVYLQMNSLKPEDTAVYYCAARYASGRRGEYWGQGTQVTVSS | high polyreactivity
QFQLVESGGGSVQAGGSLRLSCAASGSTFDYNMGWYRQAPGKERELVATIRSDGRTNYADSVKGRFTISRDNAKNTVYLQMNSLKPEDTAVYYCAADVYAYVDDFGGYDYWGQGTQVTVSS | low polyreactivity
QVQRVESGGGLVQAGGSLRISCAASGRTFRKYAMGWYRQARGKERELGAAMSWSGGSTYYANSVKGRFPISRDKPKNTVYLQMNSLKPEETAVYYCASDVDRFYTYKYDYWGQGTQVTVSS | low polyreactivity
QVQLVESGGGLVQAGGSLRLSCAASGSIFGAYAMGWYRQAPGKEWELVAAISWRDGSTYYADSVKGRFTISRDNAKNTVYLQMNCLKPEDTAVYYCAAEYVYIFYDSYYWGQGTQVTVSS | high polyreactivity
QVQLVESGGGLVQAGGSLRLTCAASGRILGRNAMGWYRQAPGKEREFVAGISYSGTSTYYADSVKGRFTISRDNAKNTVYLQMNSLKPEDTAVYYCNVKNQVYRRYYYWGQGTQVTVSS | high polyreactivity
QVQLVESGGGLVQAGGSLRLSCAASGFTFQAYAMGWYRQAPGKERELVAAIRSRGDSTYYADSVKGRFTISRDNAKNTVYLQMNSLKPEDTAVYYCNVLGYSYWGQGTQVTVSS | high polyreactivity
QDQLVESGGGLDQAGGSLRLSCAASGRTFRKYAMGWYSQAPGKERELVAAITTSGARTYYADSVKGRFTISRDNAKNTVYLQMNILKPDDTAVYYCNAVSPYDGIEFDYWGLGTQVTVSS | high polyreactivity
QFQLVESGGGLVQAGGSLRLSCAASGITFGTNAMGWYRQATGKERELVARISSSDASTYYADSVKGRFTISRDNGKNTVYLQMNSLKPEDTAVYYCAADIYVTGYFRYDYWGQGTQVTVSS | low polyreactivity
QVQLVESGGGLVQAGGSLRLSCAASGSIFRRYAMGWYRQAPGKERELVASITSSVGRTYYADSVKGRFTISRDNAKNTVYLQMNSLKPEDTAVYYCAVYVGRWGAGGKGDYWGQGTQVTVSS | low polyreactivity
QVQLVESGGGLVQAGGSLRLSCAASGSTFYVYAMGWYRQAPGKERELVAGITDSGGSTYADSVKGRFTISRDNAKNTVYLQMNSLKPEVTAVYYCAADGETLTPRILGESEGDYWGQGTQVTVSS | low polyreactivity
QVQLVESGGGLVQAGGSLRLSCAASGNIFQKYAMGWYRQAPGKERELVAAIRRGDRTYADSVKGRFTISRDNAKNTVYLQMNSLKPEDTAVYYCNTAGASYFTAGYGYWGQGTQVTVSS | low polyreactivity
QVQHVESGGGLVQAGCSLRLSCAASGRIFRLYAMGWYRQARGKERELVAAISSRGGDTYADSVKGRFTISRDNAKNTVYLQMNSLKPEDTAVYYCNAVIYYPYKYGVWYYEYDYWGQGTQVTVSS | low polyreactivity
QVQLVESGGGLVLAGGSLRLSCAASGRTFVPYAMGWYRQAPGKERELVAAMSQSGGRTYYTDSVKGRFTISGETAKNTVYLQMNSLNPEDTAVYYCAADVRSSIGHFTLYDYWGQGTQVTVSS | high polyreactivity
QVQLVESGGGLVQAGGSLRLSCAASGSIFVPYAMGWYRQAPGKERELVAAISSRGGRTYYADSVKGRFTISRDNAKNTVYLQMNSLKPEDNAVYYCNKTAGSHIPRLEYWGQGTQVTVSS | low polyreactivity

Sequence | polyreactivity (PSR sort gate)
QVQLVESGGGLVQAGGSLRLSCAASGRIFGGNAMGWYRPAPGKERELVAAITTRGGSTYADSVKGRFTISRDNAKNTVYLQMNSLKPEDTAVYYCAVERSYHGGPRYLVRTYGYWGQGTQVTVSS | low polyreactivity
QVQLVESGGGLVQAGGSLRLSCAASGSTFGSYAMGWYRQAPGKERELVAAITASGGSTYYADSVKGRFTISRDNAKNTVYLQMNSLKPEDTAVYYCAADTTYIPLSIEYDYWGQGTQVTVSS | low polyreactivity
QVQLVESGGGLVQAGGSLRLSCAAYGRIFDGNAMGWYRQAPGKERELVAAITSRGGRTYYADSVKGRFTISRDNAKNTVYLQMNSLKPEDTAVYYCNTRVKSYGHYDYWGQGTQVTVSS | high polyreactivity
QVQLVESGGGLVQAGGSLRLSSAASGRTFAGYTMGWYRQAPGKERELVAAITKSGGSTYYADSVKGRFTISRDNAKNTVYLQMNSLKPEDTAFYYCAARYIPSRYGTGGGYYSWGQGTQVTVSS | high polyreactivity
QVQLVESGGGLVQAGGSLRLSCAASGRTFRVYAMGWYRQAPGKERELVASITRGGGTYADSVKGRFTISRDNAKNTVSLQMNSLKPEDTAVYYCNADSRRRRIHYDYWGQGTQVTVSS | high polyreactivity
QGQLVESRGGLVQAGGRLRLSCAASGAIVSKNAMGWYRQAPGKERELVAAISRSAGSTYYADSVKGRFTISRVNAKNTVYLQLHSLKPEDTAVFYCAADWYYWQLWWGEGDYWGQGTQVTVSS | low polyreactivity
QVQLVESGGGLVQAGGSLRLSCAASGSTFSVYTMGWYRQAPGKERELVAAITRNGGSTSYADSVKGRFTISRDNAKNTVYLQMNSLKPEDTAVYYCAASYSYRGYLYGYWGQGTQVTVSS | high polyreactivity
QVQLVESGGGLVQAGGSLRLSCAAPGSTFVRYAMGWYRQAPGKERELVAAISKSGGSTYYADSVKGRFTISRDNAKNTVYLQMYSLKPEDTAVYYCAATTTRYSYEYWGQGTQVTVSS | low polyreactivity
QVQLVESGGGVVQAGGSLRLSCAATGSRYWDYPMGWYRQAPGKERELVAAISTSGGSTYYADSVKGRFTISRDNAKNTVYLQMNSLNPEDTAVYYCATRVRTGSVGNFNYWGQGTQVTVSS | high polyreactivity
QVQLVESGGGLVQAGCSLRLSCAASGRIFQTNVMGWYRQAPGKDRELVAAISYRGGTTYYADSVKGRFTISRDNAKNTVYLQMNSLKPEDPAVYYCAALHYRIRRTGMDYWGQGTQVTVSS | low polyreactivity
QVQLVESGGGLVQAGGSLRLSCAASGRTFRRNAMGWYRQAPGKERELVADISNGDSTKYADSVKGRFTISRDNAKNTVYLQMNSLKPEDTAVYYCNAQRYRVVVYNSHGWQTRNYWGQGTQVTVSS | low polyreactivity
QVQLVESGGGLVQAGGSLRLSCAASGIIFFFYAMGWYRQEPGKERELVAAISDEGVSTDYADSVKGRFTISRDNAKNTVYLQMNSLKPEDTAVYYCAAKTERVYPWFSFGYWGQGTQVTVSS | low polyreactivity
QGQLVESGGGLVQAGGRLRLSCAAAGGIFYSNRMGWYRQATGKEREMVAAITGGDITDYADSVKGRFTISRDNAKNTDYLQMNSLKPEDTAVYYCAGESNPPDYGPRFGSWGQGTQVSVSS | low polyreactivity
QVQLVESGGGLVQAGGSLRLSCAASGLIFKYYALGWYRQAPGKERELVAAMSWSGGSTYYADSVKGRFTISRDTAKNTVYLQMNSLKPEDTAVYYCAADSWIYSYSALSIYDYWGQGTQVTVSS | high polyreactivity
QVQLVESGGGLVQAGGSLRLSCAASGSIFEAYAMGWYRQAPGKERELVAAITTAGGSTYYADSVKGRFTISRDNAKNTVYLQMNSLKPEETAVYYCARDYGKYKGYYWGQGTQVTVSS | low polyreactivity
QVQLVESGGGLVQAGGSLRLSCAASGRISSSYDMGWYIQAPAKDRELVAAISSGSSTYYAHSVKVRFTISRDNAKNTVYLQMNSLKREDTAVYYCAKLHYAHYWGQGTQVTVSS | low polyreactivity
QVQIVESGGGLVQAGGSLRVSCAASGSILSKYDMGWYRPAPGKERELVAVISSRGGSTYYADSVKGRFTISRDNAKNTVYLQMNSLKPEDTAVYYCNARSGRGYGYWGQGTQVTVSS | high polyreactivity
QVQLVESGGGLVQAGGSLRLSCAASGRTFNRYVMGWYRQAPGNERELVAALTSSGRTNYADSVKGRFTLSRDNAKNTVYLQMNSLKPEDTAVYYCAKGLYRRYYRVWWLRGDYWGQGTQVTVSS | high polyreactivity
QVQLVESGGGLVQAGGSLRLSCAASGSIFPIYAMGWYRQAPRKERELVAAISGSGARTYYADSVKGRFTISRDNAKNTVYLQMNSLKPEDTAVYYCNAKYGYDSEARIVKPVRYDYWGQGTQVTVSS | high polyreactivity
QVQLVESGGGLVQAGGSLRLSCAASGRTLSIYAMGMYRQAPGKEMELVASISSSGGRTDYADSVKGRFTISRDNAKYTVYLQMNSLKPEDTAVYYCAADGGYYYPYRGYHKYYYWGQGTLVTVSS | low polyreactivity
QVQLVESGGGLVQAGGSLRLSCAASGSIFRVNAMGWYRQAPGKERELVAAITDGGITNYADSVKGRFTISRDNAKNTVYLQMNSLKPEETAVYYCAADTDRDFHYVVPTYDYWGQGTQVTVSS | low polyreactivity
